Test results as given in patent US20150344570A1 (published 2015).

T1: FcγRIIa H (FcgRIIa type H, His at position 131), extracellular domain with C-terminal His tag (human, UniProt P12318 34-217)
T1 construct: extracellular domain; also called 2aH; FcgRIIa H; not shown: His tag at the C terminus
T1 sequence (looked up): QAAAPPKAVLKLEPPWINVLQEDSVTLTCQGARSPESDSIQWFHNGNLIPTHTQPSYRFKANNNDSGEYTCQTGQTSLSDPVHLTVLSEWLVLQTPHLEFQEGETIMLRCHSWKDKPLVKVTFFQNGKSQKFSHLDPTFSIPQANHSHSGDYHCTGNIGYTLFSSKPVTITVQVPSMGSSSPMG

T2: FcγRIIb, extracellular domain with C-terminal His tag (human, UniProt P31994 43-217)
T2 construct: extracellular domain; also called 2b; FcgRIIb; not shown: His tag at the C terminus
T2 sequence (looked up): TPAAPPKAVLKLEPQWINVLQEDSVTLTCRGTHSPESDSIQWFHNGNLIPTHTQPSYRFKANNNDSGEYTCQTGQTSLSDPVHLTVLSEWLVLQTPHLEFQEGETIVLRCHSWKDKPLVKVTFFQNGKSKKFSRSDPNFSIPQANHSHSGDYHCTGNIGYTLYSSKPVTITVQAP

T3: FcγRIIb (human, UniProt P31994 43-217)
T3 construct: extracellular domain; also called FcgRIIb; 2b
T3 sequence (looked up): T2 sequence (looked up)

B1: GpH7-A5/GpH7-B3 variant S267_01G/GpL16-k0 (antibody, human IgG1, kappa)
heavy 1: not shown
heavy 2: not shown
light: DIVMTQSPLSLPVTPGEPASISCQASESLVHSNRNTYLHWYLQKPGQSPQLLIYKVSNRFSGVPDRFSGSGSGTDFTLKISRVEAEDVGVYYCSQNTHVPPTFGQGTKVEIERTVAAPSVFIFPPSDEQLKSGTASVVCLLNNFYPREAKVQWKVDNALQSGNSQESVTEQDSKDSTYSLSSTLTLSKADYEKHKVYACEVTHQGLSSPVTKSFNRGEC
notes: He Ab; alteration in one H chain only; also called He Ab
B2: GpH7-A5/GpH7-B3 variant P271_01G/GpL16-k0 (antibody, human IgG1, kappa)
heavy 1: not shown
heavy 2: not shown
light: B1 light
notes: as for B1
B3: GpH7-A5/GpH7-B3 variant H268_05P/GpL16-k0 (antibody, human IgG1, kappa)
heavy 1: not shown
heavy 2: not shown
light: B1 light
notes: as for B1
B4: GpH7-A5/GpH7-B3 variant V266_14T/GpL16-k0 (antibody, human IgG1, kappa)
heavy 1: not shown
heavy 2: not shown
light: B1 light
notes: mutation in the GpH7-B3 chain only; also called He Ab
B5: GpH7-A5/GpH7-B3 variant S267_15Y/GpL16-k0 (antibody, human IgG1, kappa)
heavy 1: not shown
heavy 2: not shown
light: B1 light
notes: as for B1
B6: GpH7-A5/GpH7-B3 variant S267_03V/GpL16-k0 (antibody, human IgG1, kappa)
heavy 1: not shown
heavy 2: not shown
light: B1 light
notes: as for B1
B7: GpH7-A5/GpH7-B3 variant V266_15Y/GpL16-k0 (antibody, human IgG1, kappa)
heavy 1: not shown
heavy 2: not shown
light: B1 light
notes: as for B4
B8: GpH7-A5/GpH7-B3 variant H268_02A/GpL16-k0 (antibody, human IgG1, kappa)
heavy 1: not shown
heavy 2: not shown
light: B1 light
notes: as for B1
B9: GpH7-A5/GpH7-B3 variant S267_16H/GpL16-k0 (antibody, human IgG1, kappa)
heavy 1: not shown
heavy 2: not shown
light: B1 light
notes: as for B1
B10: GpH7-A5/GpH7-B3 variant V266_19Q/GpL16-k0 (antibody, human IgG1, kappa)
heavy 1: not shown
heavy 2: not shown
light: B1 light
notes: as for B4
B11: GpH7-A5/GpH7-B3 variant H268_09D/GpL16-k0 (antibody, human IgG1, kappa)
heavy 1: not shown
heavy 2: not shown
light: B1 light
notes: as for B1
B12: GpH7-A5/GpH7-B3 variant K326_03V/GpL16-k0 (antibody, human IgG1, kappa)
heavy 1: not shown
heavy 2: not shown
light: B1 light
notes: as for B1
B13: GpH7-A5/GpH7-B3 variant H268_18N/GpL16-k0 (antibody, human IgG1, kappa)
heavy 1: not shown
heavy 2: not shown
light: B1 light
notes: as for B1
B14: GpH7-A5/GpH7-B3 variant S267_10E/GpL16-k0 (antibody, human IgG1, kappa)
heavy 1: not shown
heavy 2: not shown
light: B1 light
notes: as for B1
B15: GpH7-A5/GpH7-B3 variant S267_06M/GpL16-k0 (antibody, human IgG1, kappa)
heavy 1: not shown
heavy 2: not shown
light: B1 light
notes: as for B1
B16: GpH7-A5/GpH7-B3 variant H268_19Q/GpL16-k0 (antibody, human IgG1, kappa)
heavy 1: not shown
heavy 2: not shown
light: B1 light
notes: as for B1
B17: GpH7-A5/GpH7-B3 variant H268_10E/GpL16-k0 (antibody, human IgG1, kappa)
heavy 1: not shown
heavy 2: not shown
light: B1 light
notes: as for B1
B18: GpH7-A5/GpH7-B3 variant V266_16H/GpL16-k0 (antibody, human IgG1, kappa)
heavy 1: not shown
heavy 2: not shown
light: B1 light
notes: as for B4
B19: GpH7-A5/GpH7-B3 variant P271_10E/GpL16-k0 (antibody, human IgG1, kappa)
heavy 1: not shown
heavy 2: not shown
light: B1 light
notes: as for B1
B20: GpH7-A5/GpH7-B3 variant P271_09D/GpL16-k0 (antibody, human IgG1, kappa)
heavy 1: not shown
heavy 2: not shown
light: B1 light
notes: as for B1
B21: GpH7-A5/GpH7-B3 variant H268_01G/GpL16-k0 (antibody, human IgG1, kappa)
heavy 1: not shown
heavy 2: not shown
light: B1 light
notes: as for B1
B22: GpH7-A5/GpH7-B3 variant S267_14T/GpL16-k0 (antibody, human IgG1, kappa)
heavy 1: not shown
heavy 2: not shown
light: B1 light
notes: as for B1
B23: GpH7-A5/GpH7-B3 variant S267_09D/GpL16-k0 (antibody, human IgG1, kappa)
heavy 1: not shown
heavy 2: not shown
light: B1 light
notes: as for B1
B24: GpH7-A5/GpH7-B3 variant S267_02A/GpL16-k0 (antibody, human IgG1, kappa)
heavy 1: not shown
heavy 2: not shown
light: B1 light
notes: as for B1
B25: GpH7-A5/GpH7-B3 variant H268_13S/GpL16-k0 (antibody, human IgG1, kappa)
heavy 1: not shown
heavy 2: not shown
light: B1 light
notes: as for B1
B26: GpH7-A5/GpH7-B3 variant S267_07I/GpL16-k0 (antibody, human IgG1, kappa)
heavy 1: not shown
heavy 2: not shown
light: B1 light
notes: as for B1
B27: GpH7-A5/GpH7-B3 variant P271_14T/GpL16-k0 (antibody, human IgG1, kappa)
heavy 1: not shown
heavy 2: not shown
light: B1 light
notes: as for B1
B28: GpH7-A5/GpH7-B3 variant S267_05P/GpL16-k0 (antibody, human IgG1, kappa)
heavy 1: not shown
heavy 2: not shown
light: B1 light
notes: as for B1
B29: GpH7-A5/GpH7-B3 variant S267_08L/GpL16-k0 (antibody, human IgG1, kappa)
heavy 1: not shown
heavy 2: not shown
light: B1 light
notes: as for B1
B30: GpH7-A5/GpH7-B3 variant K326_02A/GpL16-k0 (antibody, human IgG1, kappa)
heavy 1: not shown
heavy 2: not shown
light: B1 light
notes: as for B1
B31: GpH7-A5/GpH7-B3 variant V266_18N/GpL16-k0 (antibody, human IgG1, kappa)
heavy 1: not shown
heavy 2: not shown
light: B1 light
notes: as for B4
B32: GpH7-A5/GpH7-B3 variant S267_04F/GpL16-k0 (antibody, human IgG1, kappa)
heavy 1: not shown
heavy 2: not shown
light: B1 light
notes: as for B1

Key:
[1] = molecular target: T1, FcγRIIa H (FcgRIIa type H, His at …); test: SPR (Biacore), relative binding, GpH7-A5/GpH7-B3/GpL16-k0 = 100
[2] = molecular target: T2, FcγRIIb, extracellular domain with …; test: as above
[3] = molecular target: T1, FcγRIIa H (FcgRIIa type H, His at …); test: SPR; He/Con_2aH divided by He/Con_2b (FcγRIIa H binding over FcγRIIb binding)
FcγRIIIa [4] = molecular target: T4, FcγRIIIa (human, UniProt P08637 17-208); test: SPR (Biacore), relative binding
T4 construct: extracellular domain; also called FcgRIIIa; 3a

FcγRIIb = molecular target: T3, FcγRIIb; test: SPR (Biacore), relative binding
FcγRIIIa [5] = molecular target: T4, FcγRIIIa; test: SPR; He/Con_3a divided by He/Con_2b (FcγRIIIa against FcγRIIb)

T4 sequence (P08637 17-208): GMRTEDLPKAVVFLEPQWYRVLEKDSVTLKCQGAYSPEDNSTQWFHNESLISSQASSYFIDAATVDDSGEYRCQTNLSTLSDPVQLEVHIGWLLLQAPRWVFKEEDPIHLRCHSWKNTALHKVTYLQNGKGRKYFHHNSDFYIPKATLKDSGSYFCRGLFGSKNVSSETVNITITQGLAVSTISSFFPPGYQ

Row | Binder | He/Con_2aH [1] | He/Con_2b [2] | He_2aH/2b (IIaH/IIb) [3] [ratio] | He/Con_3a (FcγRIIIa [4]) | He/Con_2b (FcγRIIb) | He_3a/2b (IIIa/IIb) (FcγRIIIa [5]) [ratio]
1 | B1 | 71.3 % of control | 105 % of control | 0.68 |  |  | 
2 | B2 | 107 % of control | 193 % of control | 0.55 |  |  | 
3 | B3 | 81.8 % of control | 116 % of control | 0.7 |  |  | 
4 | B4 |  |  |  | 39.4 % of GpH7-A5/GpH7-B3/GpL16-k0 | 82.3 % of GpH7-A5/GpH7-B3/GpL16-k0 | 0.48
5 | B5 | 19.6 % of control | 37.9 % of control | 0.52 |  |  | 
6 | B6 | 50.8 % of control | 192 % of control | 0.26 |  |  | 
7 | B7 |  |  |  | 14.5 % of GpH7-A5/GpH7-B3/GpL16-k0 | 49.4 % of GpH7-A5/GpH7-B3/GpL16-k0 | 0.29
8 | B8 | 114 % of control | 167 % of control | 0.68 |  |  | 
9 | B9 | 29.8 % of control | 65.9 % of control | 0.45 |  |  | 
10 | B10 |  |  |  | 34.7 % of GpH7-A5/GpH7-B3/GpL16-k0 | 89.2 % of GpH7-A5/GpH7-B3/GpL16-k0 | 0.39
11 | B11 | 133 % of control | 239 % of control | 0.55 |  |  | 
12 | B12 | 97 % of control | 175 % of control | 0.55 |  |  | 
13 | B13 | 112 % of control | 156 % of control | 0.72 |  |  | 
14 | B14 | 102 % of control | 379 % of control | 0.27 |  |  | 
15 | B15 | 34.3 % of control | 210 % of control | 0.16 |  |  | 
16 | B16 | 102 % of control | 133 % of control | 0.77 |  |  | 

Row | Binder | He/Con_2aH [1] | He/Con_2b [2] | He_2aH/2b (IIaH/IIb) [3] [ratio] | He/Con_3a (FcγRIIIa [4]) | He/Con_2b (FcγRIIb) | He_3a/2b (IIIa/IIb) (FcγRIIIa [5]) [ratio]
17 | B17 | 124 % of control | 230 % of control | 0.54 |  |  | 
18 | B18 |  |  |  | 21.3 % of GpH7-A5/GpH7-B3/GpL16-k0 | 57.2 % of GpH7-A5/GpH7-B3/GpL16-k0 | 0.37
19 | B19 | 63.1 % of control | 109 % of control | 0.58 |  |  | 
20 | B20 | 70.1 % of control | 120 % of control | 0.58 |  |  | 
21 | B21 | 99.2 % of control | 144 % of control | 0.69 |  |  | 
22 | B22 | 63.3 % of control | 104 % of control | 0.61 |  |  | 
23 | B23 | 105 % of control | 310 % of control | 0.34 |  |  | 
24 | B24 | 120 % of control | 243 % of control | 0.49 |  |  | 
25 | B25 | 112 % of control | 160 % of control | 0.7 |  |  | 
26 | B26 | 34.7 % of control | 192 % of control | 0.18 |  |  | 
27 | B27 | 60.9 % of control | 95.4 % of control | 0.64 |  |  | 
28 | B28 | 25.1 % of control | 31.5 % of control | 0.8 |  |  | 
29 | B29 | 29 % of control | 109 % of control | 0.27 |  |  | 
30 | B30 | 106 % of control | 139 % of control | 0.76 |  |  | 
31 | B31 |  |  |  | 30.4 % of GpH7-A5/GpH7-B3/GpL16-k0 | 69.7 % of GpH7-A5/GpH7-B3/GpL16-k0 | 0.44
32 | B32 | 22.7 % of control | 48 % of control | 0.47 |  |  | 
